Measurements published in patent US20230002480A1.

Key:
Assay in all cases: cell-based or functional assay
[1] = molecular target: HIV-1 Env of pseudovirus Ce2010_F5 (HIV-1)
[2] = molecular target: HIV-1 Env of pseudovirus T278-50 (HIV-1)
[3] = molecular target: HIV-1 Env of pseudovirus 6540.v4.c1 (HIV-1)
[4] = molecular target: HIV-1 Env of pseudovirus Ce703010054_2A2 (HIV-1)
[5] = molecular target: HIV-1 Env of pseudovirus X1254_c3 (HIV-1)
[6] = molecular target: HIV-1 Env of pseudovirus CNE20 (HIV-1)
[7] = molecular target: HIV-1 Env of pseudovirus Ce0682_E4 (HIV-1)
[8] = molecular target: HIV-1 Env of pseudovirus BJOX015000.11.5 (HIV-1)
[9] = molecular target: HIV-1 Env of pseudovirus 0260.v5.c36 (HIV-1)
[10] = molecular target: HIV-1 Env of pseudovirus 928-28 (HIV-1)
[11] = molecular target: HIV-1 Env of pseudovirus HIV-001428-2.42 (HIV-1)
[12] = molecular target: HIV-1 Env of pseudovirus Ce1176_A3 (HIV-1)
[13] = molecular target: HIV-1 Env of pseudovirus Q461.e2 (HIV-1)
[14] = molecular target: HIV-1 Env of pseudovirus ZM249M.PL1 (HIV-1)
[15] = molecular target: HIV-1 Env of pseudovirus CNE8 (HIV-1)
[16] = molecular target: HIV-1 Env of pseudovirus 1012_11_TC21_3257 (HIV-1)
[17] = molecular target: HIV-1 Env of pseudovirus 6811.v7.c18 (HIV-1)
[18] = molecular target: HIV-1 Env of pseudovirus 1056_10_TA11_1826 (HIV-1)
[19] = molecular target: HIV-1 Env of pseudovirus CAAN5342.A2 (HIV-1)
[20] = molecular target: HIV-1 Env of pseudovirus ZM233M.PB6 (HIV-1)
[21] = molecular target: HIV-1 Env of pseudovirus P1981_C5_3 (HIV-1)
[22] = molecular target: HIV-1 Env of pseudovirus BJOX028000.10.3 (HIV-1)
[23] = molecular target: HIV-1 Env of pseudovirus ZM109F.PB4 (HIV-1)
[24] = molecular target: HIV-1 Env of pseudovirus 231966.c02 (HIV-1)
[25] = molecular target: HIV-1 Env of pseudovirus CAP210.2.00.E8 (HIV-1)
[26] = molecular target: HIV-1 Env of pseudovirus R2184.c04 (HIV-1)
[27] = molecular target: HIV-1 Env of pseudovirus Q842.d12 (HIV-1)
[28] = molecular target: HIV-1 Env of pseudovirus Ce0393_C3 (HIV-1)
[29] = molecular target: HIV-1 Env of pseudovirus CNE53 (HIV-1)
[30] = molecular target: HIV-1 Env of pseudovirus Du422.1 (HIV-1)
[31] = molecular target: HIV-1 Env of pseudovirus Du156.12 (HIV-1)
[32] = molecular target: HIV-1 Env of pseudovirus CNE5 (HIV-1)
[33] = molecular target: HIV-1 Env of pseudovirus T251-18 (HIV-1)
[34] = molecular target: HIV-1 Env of pseudovirus X1193_c1 (HIV-1)
[35] = molecular target: HIV-1 Env of pseudovirus ZM53M.PB12 (HIV-1)
[36] = molecular target: HIV-1 Env of pseudovirus ZM214M.PL15 (HIV-1)
[37] = molecular target: HIV-1 Env of pseudovirus MS208.A1 (HIV-1)

PGT151 (antibody) showed an IC50 [1] of over 50 µg/mL, an IC80 [1] of over 50 µg/mL and an IC50, titer in TZM.bl cells [2] of 0.13 µg/mL. It also gave an IC80, titer in TZM.bl cells [2] of over 50 µg/mL, an IC50, titer in TZM.bl cells [3] of 0.006 µg/mL and an IC80, titer in TZM.bl cells [3] of 0.03 µg/mL. The IC50 [4] was 0.013 µg/mL, the IC80 [4] was 0.075 µg/mL and the IC50, titer in TZM.bl cells [5] was 0.309 µg/mL. It also gave an IC80, titer in TZM.bl cells [5] of over 50 µg/mL, an IC50 [6] of over 50 µg/mL and an IC80 [6] of over 50 µg/mL. For the same substance, the IC50 [7] was over 50 µg/mL, the IC80 [7] was over 50 µg/mL and the IC50, titer in TZM.bl cells [8] was over 50 µg/mL. The IC80, titer in TZM.bl cells [8] was over 50 µg/mL, the IC50 [9] was 0.427 µg/mL and the IC80 [9] was over 50 µg/mL. The IC50 [10] was over 50 µg/mL, the IC80 [10] was over 50 µg/mL and the IC50 [11] was 0.027 µg/mL. For the same substance, the IC80 [11] was over 50 µg/mL, the IC50 [12] was 0.006 µg/mL and the IC80 [12] was 0.018 µg/mL. It also gave an IC50 [13] of 12.6 µg/mL, an IC80 [13] of over 50 µg/mL and an IC50 [14] of 0.004 µg/mL. For the same substance, the IC80 [14] was 0.015 µg/mL, the IC50, titer in TZM.bl cells [15] was over 50 µg/mL and the IC80, titer in TZM.bl cells [15] was over 50 µg/mL. The IC50 [16] was over 50 µg/mL, the IC80 [16] was over 50 µg/mL and the IC50, titer in TZM.bl cells [17] was over 50 µg/mL. For the same substance, the IC80, titer in TZM.bl cells [17] was over 50 µg/mL, the IC50 [18] was 0.008 µg/mL and the IC80 [18] was 0.048 µg/mL. The IC50 [19] was 0.005 µg/mL, the IC80 [19] was 0.038 µg/mL and the IC50 [20] was 0.027 µg/mL. For the same substance, the IC80 [20] was 5.16 µg/mL, the IC50, titer in TZM.bl cells [21] was 0.021 µg/mL and the IC80, titer in TZM.bl cells [21] was over 50 µg/mL. It also gave an IC50, titer in TZM.bl cells [22] of over 50 µg/mL, an IC80, titer in TZM.bl cells [22] of over 50 µg/mL and an IC50 [23] of 0.609 µg/mL. For the same substance, the IC80 [23] was over 50 µg/mL, the IC50, titer in TZM.bl cells [24] was 0.025 µg/mL and the IC80, titer in TZM.bl cells [24] was 0.183 µg/mL. The IC50 [25] was 0.01 µg/mL, the IC80 [25] was 0.208 µg/mL and the IC50, titer in TZM.bl cells [26] was over 50 µg/mL. The IC80, titer in TZM.bl cells [26] was over 50 µg/mL, the IC50 [27] was 0.001 µg/mL and the IC80 [27] was 0.014 µg/mL. For the same substance, the IC50 [28] was over 50 µg/mL, the IC80 [28] was over 50 µg/mL and the IC50 [29] was over 50 µg/mL. For the same substance, the IC80 [29] was over 50 µg/mL, the IC50 [30] was 4.6 µg/mL and the IC80 [30] was over 50 µg/mL. The IC50 [31] was 0.005 µg/mL, the IC80 [31] was 0.023 µg/mL and the IC50, titer in TZM.bl cells [32] was over 50 µg/mL. The IC80, titer in TZM.bl cells [32] was over 50 µg/mL, the IC50, titer in TZM.bl cells [33] was 0.327 µg/mL and the IC80, titer in TZM.bl cells [33] was over 50 µg/mL. For the same substance, the IC50, titer in TZM.bl cells [34] was 0.004 µg/mL, the IC80, titer in TZM.bl cells [34] was 0.027 µg/mL and the IC50 [35] was over 50 µg/mL. For the same substance, the IC80 [35] was over 50 µg/mL, the IC50 [36] was 0.008 µg/mL and the IC80 [36] was 0.045 µg/mL. For the same substance, the IC50 [37] was under 0.001 µg/mL and the IC80 [37] was 0.003 µg/mL.
In the case of VRC07 (antibody), the neutralization IC50 [1] was 0.131 µg/mL, the neutralization IC80 [1] was 0.48 µg/mL and the IC50, titer in TZM.bl cells [2] was over 50 µg/mL. The IC80, titer in TZM.bl cells [2] was over 50 µg/mL, the IC50, titer in TZM.bl cells [3] was over 50 µg/mL and the IC80, titer in TZM.bl cells [3] was over 50 µg/mL. The neutralization IC50 [4] was 0.19 µg/mL, the neutralization IC80 [4] was 0.912 µg/mL and the IC50, titer in TZM.bl cells [5] was 0.041 µg/mL. For the same substance, the IC80, titer in TZM.bl cells [5] was 0.2 µg/mL, the neutralization IC50 [6] was 0.06 µg/mL and the neutralization IC80 [6] was 0.129 µg/mL. It also gave a neutralization IC50 [7] of 0.039 µg/mL, a neutralization IC80 [7] of 0.239 µg/mL and an IC50, titer in TZM.bl cells [8] of 0.054 µg/mL. It also gave an IC80, titer in TZM.bl cells [8] of 0.479 µg/mL, a neutralization IC50 [9] of 0.448 µg/mL and a neutralization IC80 [9] of 1.62 µg/mL. It also gave a neutralization IC50 [10] of 0.278 µg/mL, a neutralization IC80 [10] of 0.957 µg/mL and a neutralization IC50 [11] of 0.004 µg/mL. For the same substance, the neutralization IC80 [11] was 0.016 µg/mL, the neutralization IC50 [12] was 0.52 µg/mL and the neutralization IC80 [12] was 2.6 µg/mL. The neutralization IC50 [13] was 0.282 µg/mL, the neutralization IC80 [13] was 1.02 µg/mL and the neutralization IC50 [14] was 0.041 µg/mL. It also gave a neutralization IC80 [14] of 0.145 µg/mL, an IC50, titer in TZM.bl cells [15] of 0.45 µg/mL and an IC80, titer in TZM.bl cells [15] of 1.56 µg/mL. It also gave a neutralization IC50 [16] of 0.014 µg/mL, a neutralization IC80 [16] of 0.045 µg/mL and an IC50, titer in TZM.bl cells [17] of 0.093 µg/mL. It also gave an IC80, titer in TZM.bl cells [17] of 0.435 µg/mL, a neutralization IC50 [18] of 0.239 µg/mL and a neutralization IC80 [18] of 1.11 µg/mL. For the same substance, the neutralization IC50 [19] was 0.307 µg/mL, the neutralization IC80 [19] was 1.05 µg/mL and the neutralization IC50 [20] was 0.152 µg/mL. The neutralization IC80 [20] was 0.625 µg/mL, the IC50, titer in TZM.bl cells [21] was 0.213 µg/mL and the IC80, titer in TZM.bl cells [21] was 0.609 µg/mL. The IC50, titer in TZM.bl cells [22] was 0.011 µg/mL, the IC80, titer in TZM.bl cells [22] was 0.069 µg/mL and the neutralization IC50 [23] was 0.112 µg/mL. It also gave a neutralization IC80 [23] of 0.389 µg/mL, an IC50, titer in TZM.bl cells [24] of 0.105 µg/mL and an IC80, titer in TZM.bl cells [24] of 0.471 µg/mL. The neutralization IC50 [25] was over 50 µg/mL, the neutralization IC80 [25] was over 50 µg/mL and the IC50, titer in TZM.bl cells [26] was 0.02 µg/mL. It also gave an IC80, titer in TZM.bl cells [26] of 0.104 µg/mL, a neutralization IC50 [27] of 0.015 µg/mL and a neutralization IC80 [27] of 0.051 µg/mL. The neutralization IC50 [28] was 0.182 µg/mL, the neutralization IC80 [28] was 0.634 µg/mL and the neutralization IC50 [29] was 0.031 µg/mL. It also gave a neutralization IC80 [29] of 0.086 µg/mL, a neutralization IC50 [30] of over 50 µg/mL and a neutralization IC80 [30] of over 50 µg/mL. The neutralization IC50 [31] was 0.041 µg/mL, the neutralization IC80 [31] was 0.149 µg/mL and the IC50, titer in TZM.bl cells [32] was 0.138 µg/mL. For the same substance, the IC80, titer in TZM.bl cells [32] was 0.524 µg/mL, the IC50, titer in TZM.bl cells [33] was 1.32 µg/mL and the IC80, titer in TZM.bl cells [33] was 6.49 µg/mL. It also gave an IC50, titer in TZM.bl cells [34] of 0.037 µg/mL, an IC80, titer in TZM.bl cells [34] of 0.249 µg/mL and a neutralization IC50 [35] of 0.275 µg/mL. The neutralization IC80 [35] was 1.29 µg/mL, the neutralization IC50 [36] was 0.198 µg/mL and the neutralization IC80 [36] was 1.42 µg/mL. The neutralization IC50 [37] was 0.12 µg/mL and the neutralization IC80 [37] was 0.425 µg/mL.
